Measured values reported in patent US6835539B1, “Nucleic sequences coding for an AT2 interacting proteins interacting with the AT2 receptor and their applications” (priority 1998, dated 2004).

Columns and labels:
[1] = molecular target: T1, AT2 receptor (Homo sapiens, UniProt P50052); assay: Inhibition of insulin-induced tyrosine phosphorylation in CHO-hAT2 cells; format: cell-based; parameters: a plasmid containing the region encoding the human AT2 receptor; expressed in transfected cells; host or cells: CHO cells deficient in dihydrofolate reductase (clone CHO-hAT2)
T1 sequence (P50052 1-363): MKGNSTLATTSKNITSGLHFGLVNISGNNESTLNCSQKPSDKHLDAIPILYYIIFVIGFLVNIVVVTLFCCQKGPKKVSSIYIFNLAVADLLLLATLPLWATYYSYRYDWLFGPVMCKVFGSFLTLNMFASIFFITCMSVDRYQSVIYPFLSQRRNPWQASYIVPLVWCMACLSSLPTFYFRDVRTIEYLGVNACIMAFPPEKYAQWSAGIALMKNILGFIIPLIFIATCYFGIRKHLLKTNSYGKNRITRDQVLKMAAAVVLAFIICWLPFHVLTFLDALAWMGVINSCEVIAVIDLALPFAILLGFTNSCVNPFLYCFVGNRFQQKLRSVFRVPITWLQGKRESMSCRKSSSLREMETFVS
Source text: (§1) For that, a stable clone of CHO-hAT2 cells expressing the ATIPmouse-long protein (CHO-hAT2-ATIP), obtained according to the methodology described in Example 4, was used; the functional test for the activity of the AT2 receptor developed on the CHO-hAT2 clone which consists in inhibiting the phosphorylation of the IRβ subunit of the insulin receptor induced by its ligand, was reproduced.
The CHO-hAT2 cells are inoculated at a density of 3×10^6 cells per dish having a diameter of […]. They are made quiescent by 16 hours of deprivation before being treated. […] After treatment, the cells are solubilized in lysis buffer containing: 50 mM Hepes, pH 7.6, 1% Triton X-100, 20 mM EDTA, 30 mM sodium pyrophosphate, 30 mM sodium fluoride, 2 mM benzamidine, 1 mM sodium orthovanadate, 1 mM phenylmethylsulphonyl fluoride and 1 μg/ml of aprotinin, pepstatin, antipain and leupeptin. The lysates are then subjected to purification on a wheatgerm lectin column, according to the protocol described in Issad, T. et al., (Eur. J. Biochem. 1995, 234, 108-115). After bringing into contact and washings, the lectin beads coupled to Sepharose (Pharmacia) are recovered in sample buffer containing SDS and the eluted proteins are analysed in SDS-PAGE followed by immunoblotting with anti-phosphotyrosine antibodies (Upstate Biotechnology, Inc.) or anti-IRβ antibodies (described in Issad, T. et al., cited above).

[2] = molecular target: T1, AT2 receptor; assay: Inhibition of insulin-induced tyrosine phosphorylation in CHO-hAT2-ATIP cells; format: cell-based; parameters: a plasmid containing the region encoding the human AT2 receptor; expressed in transfected cells; host or cells: CHO-hAT2 cells stably transfected with ATIPmouse-long; details: 100 nM, insulin 0.05, 0.01, 0.005, 0.001 μg/ml, reproduced 3 times
Source text: as §1
The CHO-hAT2 cells are inoculated at a density of 3×10^6 cells per dish having a diameter of […]. They are made quiescent by 16 hours of deprivation before being treated. The treatment consists in bringing into contact for 5 minutes with 15 ml of F12 medium containing insulin supplemented or otherwise with CGP42112 (selective agonist of the AT2 receptor). […] After bringing into contact and washings, the lectin beads coupled to Sepharose (Pharmacia) are recovered in sample buffer containing SDS and the eluted proteins are analysed in SDS-PAGE followed by immunoblotting with anti-phosphotyrosine antibodies (Upstate Biotechnology, Inc.) or anti-IRβ antibodies (described in Issad, T. et al., cited above). […]

[3] = molecular target: T2, C-terminal end of human AT1 receptor (Leu 297-Glu 359) (Homo sapiens, UniProt P30556); assay: In vitro GST pull-down of MBP-AT1 on GA-GST-ATIPmouse-short beads; format: binding; details: SDS-PAGE and anti-MBP immunoblot; FIG. 10
T2 construct: C-terminal end of human AT1 receptor (Leu 297-Glu 359); made in house; host or cells: bacteria, same protocol as MBP-AT2 (E. coli DH5α)
T2 sequence (P30556 297-359): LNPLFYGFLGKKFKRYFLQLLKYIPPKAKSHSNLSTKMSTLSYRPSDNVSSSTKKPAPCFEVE

[4] = molecular target: T3, C-terminal end of the human AT2 receptor (Asn314-Ser363) (Homo sapiens, UniProt P50052); assay: In vitro GST pull-down of MBP-AT2 on GA-GST-ATIPmouse-short beads; format: binding; details: compared with GA-GSTalone beads; SDS-PAGE and anti-MBP immunoblot; FIG. 10
T3 construct: C-terminal end of the human AT2 receptor (Asn314-Ser363); made in house; host or cells: E. coli DH5α (pMAL-c2-AT2)
T3 sequence (P50052 314-363): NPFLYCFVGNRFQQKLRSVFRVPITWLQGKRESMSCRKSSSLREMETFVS
Description: For that, the fusion protein GST-ATIP as described above was produced; it is combined through its GST part with glutathione coupled to agarose beads (GA). In parallel, bacteria (DH5α) are transfected with a plasmid (pMAL-c2-AT2, derived from pMAL-c2 from New England Biolabs) encoding a fusion protein between the C-terminal end of the human AT2 receptor (Asn314-Ser363) and MBP (Maltose Binding Protein). These bacteria were cultured and the fusion protein was induced in 0.3 mM IPTG according to the protocol “pMAL Protein Fusion and Purification System” from New England Biolabs. After centrifugation of the culture at 4000 g and solubilization of the pellet obtained in “column buffer” (20 mM Tris-HCl, 200 mM NaCl, 1 mM EDTA), another centrifugation at 9000 g made it possible to recover a supernatant containing a high concentration of MBP-AT2. This supernatant was brought into contact, for 3 hours at […], with glutathione agarose beads coupled to GST protein alone after addition of NaCl so as to have 300 mM final NaCl. This preincubation step makes it possible to remove the nonspecific interactions which may exist between ATIP and GA-GST. The supernatant recovered was brought into contact with the GA-GST-ATIPmouse-short or GA-GSTalone beads overnight at 4° C. After contact, the beads were rinsed three times in 20 mM Tris-HCl buffer, 300 mM NaCl, 1 mM EDTA and once in “column buffer”.

[5] = system: C-terminal end of the rat AT1 receptor; assay: Two-hybrid selectivity test with a control bait; format: binding
Source text: (§2) Protein X: C-terminal end of the human β2-adrenergic receptors, rat AT1 or human bradykinin.

[6] = system: C-terminal end of the human bradykinin receptor; assay: Two-hybrid selectivity test with a control bait; format: binding
Source text: as §2

[7] = molecular target: T4, C-terminal end of the human β2 adrenergic receptor (Homo sapiens, UniProt P07550); assay: Two-hybrid selectivity test with a control bait; format: binding
T4 construct: C-terminal end of the human β2-adrenergic receptors; expressed in transfected cells
Source text: as §2

[8] = molecular target: T5, C-terminal end of the mouse AT2 receptor (Mus musculus, UniProt P35374); assay: Two-hybrid interaction of the ATIP clone with the AT2 C-terminal bait; format: binding; details: baits in pGBT9 and pLEX9; mouse foetal cDNA library clone
T5 construct: expressed in transfected cells; host or cells: yeast HF7c (pGBT9 bait) or L40 (pLex9 bait)
T5 sequence (P35374 312-363): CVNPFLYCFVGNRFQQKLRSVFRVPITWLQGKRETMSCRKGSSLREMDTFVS
Source text: In the two-hybrid system, the DNA-binding domain is fused with a protein X and the activation domain is fused with a protein Y. If, and only if, X and Y interact, a complex is formed which reconstitutes a functional transcription factor.
Protein X: C-terminal end of the sequence encoding the mouse AT2 receptor (52 amino acids of CVNPF at the stop codon, see FIG. 1), fused with the sequence encoding the Gal4 DNA-binding domain (FIG. 2).
Insert: end of the mouse AT2 receptor (159 bp+16 bp of sites generated by PCR) inserted at the level of the EcoRI and BamHI sites of the vectors pLEX9 (Clontech) or pGBT9 (modified pGAD424 or pBTM116; A. B. Vojtek et al., Cell, 1993, 74, 205-214).
mouse foetal cDNA library (A. B. Vojtek et al., Cell, 1993, 74, 205-214) , containing inserts of 350 to 700 bp (protein Y) in the vector VP16 (FIG. 5).
HF7c (Clontech) for the bait constructed in pGBT9;
L40 for the bait constructed in pLex9.

CGP42112 was tested, and the “inhibition of the phosphorylation of IRβ induced by insulin” value ([1]; CHO-hAT2 cells, 100 nM, all insulin doses between 0.1 and 0.001 μg/ml, 5 minutes) was “inhibit”, the “inhibition of the phosphorylation of IRβ” value ([1]; CHO-hAT2 cells, induced by 0.01 μg/ml insulin, n=7) was 64±4% and the “inhibition of insulin-induced tyrosine phosphorylation of SIRP (120 kDa)” value ([1]; clone CHO-hAT2) was “inhibited”. For the same molecule, the “inhibition of the phosphorylation of the insulin receptor” value [2] was “not observed”.

B1: ATIPmouse-short: Polypeptide (SEQ ID NO:6) encoded by the 354 bp ATIP clone (SEQ ID NO:5); AT2 interacting protein fragment, used as a GST fusion (protein)
chain: HQTDRTELENRLKDLYTAECEKLQSIYIEEAEKYKTQLQEQFDNLNAAHETTKLEIEASHSEKVELLKKTYETSLSEIKKSHEMEKKSLEDLLNEKQESLEKQINDLKSENDALNERL
modifications: used as GST fusion; Insert identified by yeast two hybrid screening of a M. musculus fetal cDNA library
With B1 the “retention of the MBP-AT1 protein on GA-GST-ATIPmouse-short beads” value [3] was “not retained in a specific manner”, the “retention of the MBP-AT2 protein on GA-GST-ATIPmouse-short beads” value [4] was “specific retention” and the “two-hybrid interaction with the C-terminal end of the rat AT1 receptor” value [5] was “negative results”. The “two-hybrid interaction with the C-terminal end of the human bradykinin receptor” value [6] was “negative results”, the “two-hybrid interaction with the C-terminal end of the human β2 adrenergic receptor” value [7] was “negative results” and the “interaction with the C-terminal end of AT2 in the two-hybrid system” value [8] was “interacts specifically”.
